Test results: patent US20220273713A1, “METHOD OF INHIBITING OR ACTIVATING GAMMA DELTA T CELLS” (The University of Melbourne, priority 2019, published 2022)
Where “and” joins values, the source holds several entries; their conditions need not be identical. Equal values may be shown once. Entries after “also recorded” stand apart in the source; their conditions may differ.

Experiments:
[1] = test system: Vγ9Vδ2 cells; experiment: Luminex (Vγ9Vδ2): cytokine/chemokine secretion by pre-expanded Vγ9Vδ2 cells; assay type: cell-based, human; settings: for GMCSF / ICAM-1 / IFNγ / IL-4 / IL-8 / IL-13 / IL-17A / MIP-1a / MIP-1b / TNFα / sE-selectin / sP-Selectin: 16 hrs, antibodies 10 μg/ml, Zoledronic acid 4 μM, HMBPP 0.5 ng/ml, duplicates, 0 set to 0.1;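 as to all read-outs here: Vγ9Vδ2 cells purified from PBMC, activated 48 h with CD3 and CD28 plus IL-2, expanded 14 days in IL-2, then thawed and rested overnight in IL-2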
Method: Briefly, Vγ9Vδ2 cells were isolated from 1 healthy donor (Red Cross Australia) and 1 cancer patient derived PBMC using TCRγ/δ+ T Cell Isolation Kit (Miltenyi). Cells were stimulated for 48 hours in TCRPMI supplemented with 100u/ml IL-2, CD3 (10 μg/ml) and CD28 (1 μg/ml). Cells were washed and grown for 14 days in TCRPMI supplemented with 100u/ml IL-2 at 37 degrees C. and 5% CO2, and then frozen down. […] Vγ9Vδ2 were defrosted and rested overnight in TCRPMI supplemented with 50u/ml IL-2 at 37 degrees C. and 5% CO2. […] All samples were run with appropriate controls and standards.

[2] = molecular target: G115 Vγ9Vδ2+ γδTCR, wild type, on cells; experiment: flow cytometry, tetramer-PE versus anti-CD3ε-APC on Jurkat G115 Vγ9Vδ2+ γδTCR cells
[3] = test system: in vitro pre-expanded CD3+Vδ2+ γδ T cells; experiment: HMBPP or anti-CD3/anti-CD28 activation of purified in vitro-expanded Vδ2+ T cells ± neutralizing anti-BTN2A1 mAb; assay type: cell-based, human; settings: HMBPP 0.5 ng/ml, 10 μg/ml neutralizing anti-BTN2A1 mAb, no APCs
Method: CD25 expression was determined by flow cytometry, and IFN-γ concentration was determined by cytometric bead array (BD Bioscience) as per manufacturer instructions.

[4] = test system: γδ T cells; experiment: Identification of BTN2A1 agonistic antibodies: CD25 and interferon γ of expanded γδ T cells; assay type: cell-based, human; settings: 10 μg/ml antibody overnight, vs isotype control BM4
Method: In some experiments γδ T cells were enriched by MACS using PE-Cy7-conjugated anti-γδTCR followed by anti-phycoerythrin-mediated magnetic bead purification (Miltenyi Biotec). After enrichment CD3+Vδ2+ γδ T cells were further purified by sorting using an Aria III (BD). Enriched γδ T cells were stimulated in vitro for 48 h with plate-bound anti-CD3ε (OKT3, 10 ug/ml, Bio-X-Cell), soluble anti-CD28 (CD28.2, 1 ug/ml, BD Pharmingen), phytohemagglutinin (0.5 μg/ml, Sigma), IL-15 (50 ng/ml), and recombinant human IL-2 (100 U/ml, PeproTech), followed by maintenance with IL-2 and IL-15 for 14-21 d. Cells were cultured in complete medium consisting of a 50:50 (v/v) mixture of RPMI-1640 and AIM-V (Invitrogen) supplemented with 10% (v/v) FCS (JRH Biosciences), penicillin (100 U/ml), streptomycin (100 μg/ml), Glutamax (2 mM), sodium pyruvate (1 mM), nonessential amino acids (0.1 mM), and HEPES buffer (15 mM), pH 7.2-7.5 (all from Invitrogen Life Technologies), plus 50 μM 2-mercaptoethanol (Sigma-Aldrich).
The inventors screened the panel of antibodies specific for BTN2A1, as described above, to identify those able to agonise BTN2A1. The inventors assessed the ability of anti-BTN2A1 antibodies to activate γδ T cells. The inventors assessed upregulation of CD25 on the surface of previously expanded γδ T cells following culturing the cells with 10 μg/ml anti-BTN2A1 antibodies or isotype control antibody (BM4) overnight.
The inventors additionally measured levels of interferon γ secreted by γδ T cells following culture in the presence of 10 μg/ml anti-BTN2A1 antibodies or isotype control antibody (BM4) overnight. Interferon γ secretion is another indicator of TCR-dependent activation.

[5] = test system: LM-MEL-62 and LM-MEL-75 melanoma cells; experiment: Tumor killing/inhibition assay: γδ T cells with melanoma cells 2:1, MTS and CD25; assay type: cell-based, human; settings: γδ T cells : melanoma cells 2:1, three days, antibody 10 ug/ml
Method: In the following experiments, γδ T cells were enriched by MACS using PE-Cy7-conjugated anti-γδTCR followed by anti-phycoerythrin-mediated magnetic bead purification (Miltenyi Biotec). After enrichment CD3^+ Vδ2^+γδ T cells were further purified by sorting using an Aria III (BD). […] LM-MEL-62 and LM-MEL-75 melanoma cells were plated out 1×10^4 per well in a 96 well flat-bottom plate In RPMI1640 media supplemented with 10% FBS and left to adhere overnight. […] All conditions were repeated in triplicate. Cells were incubated at 37 degrees and on day 3 Vd2+ cells were acquired by flow cytometry. Live cells were gated and activation determined by analysis of CD25 expression. Melanoma cell viability was determined by MTS assay. MTS reagent was added to RPMI media at a 1:5 ratio and 100 ul added per well. Cells were incubated at 37 degrees for 30 minutes and the plate was read on a Spectrostar nano plate reader at 490 nm. […] Cultures were performed with γδ T cells and melanoma cells (LM-MEL-75 or LM-MEL-62) in a 2:1 ratio.

[6] = test system: Vγ9Vδ2 cells; experiment: Flow cytometry: CD25 on Vγ9Vδ2 cells without phosphoantigen or APCs; assay type: cell-based, human; settings: no addition of APCs or phosphoantigen; listed as 253
Description: Vγ9Vδ2 cells were stained for CD3, Vδ2, CD25 and live dead viability dye as previously described and analysed on a Canto flow cytometer (BD). Cells were gated on lymphocytes, single cells, live cells, CD3+ Vδ2+, and activation determined based on CD25 expression.

[7] = γδT cells from patient 1 (melanoma patient)
[8] = γδT cells from a healthy donor, listed as 253
[9] = γδT cells from patient 1 (melanoma patient), listed as 253

In the case of `O=P(O)(O)C(O)(Cn1ccnc1)P(=O)(O)O` [Zoledronate, zoledronate, reference compound], the GMCSF ([1]; γδT cells from a healthy donor) is reported as 254.29 pg/mL and 268.62 pg/mL, the ICAM-1 ([1]; γδT cells from a healthy donor) is reported as 490.35 pg/mL and 504.11 pg/mL and the IFNγ ([1]; γδT cells from a healthy donor) is reported as 58.38 pg/mL and 58.97 pg/mL. The IL-4 ([1]; γδT cells from a healthy donor) was 0.1 pg/mL, the IL-8 ([1]; γδT cells from a healthy donor) was 0.1 pg/mL and the IL-13 ([1]; γδT cells from a healthy donor) was 5.22 pg/mL and 4.43 pg/mL. The IL-17A ([1]; γδT cells from a healthy donor) was 0.1 pg/mL, the MIP-1a ([1]; γδT cells from a healthy donor) was 121.61 pg/mL and 125.27 pg/mL and the MIP-1b ([1]; γδT cells from a healthy donor) was 1280.91 pg/mL and 1334.19 pg/mL. For the same molecule, the TNFα ([1]; γδT cells from a healthy donor) was 13.03 pg/mL and 13.02 pg/mL, the sE-selectin ([1]; γδT cells from a healthy donor) was 190.9 pg/mL and the sP-Selectin ([1]; γδT cells from a healthy donor) was 200.54 pg/mL and 313.85 pg/mL. For the same molecule, the GMCSF [1, 7] was 650.17 pg/mL and 619.93 pg/mL, the ICAM-1 [1, 7] was 968.87 pg/mL and 888.51 pg/mL and the IFNγ [1, 7] was 175.86 pg/mL and 171.42 pg/mL. For the same molecule, the IL-4 [1, 7] was 7.43 pg/mL and 7.68 pg/mL, the IL-8 [1, 7] was 0.1 pg/mL and the IL-13 [1, 7] was 235.43 pg/mL and 219.81 pg/mL. The IL-17A [1, 7] was 3.5 pg/mL and 4.08 pg/mL, the MIP-1a [1, 7] was 274.25 pg/mL and 273.85 pg/mL and the MIP-1b [1, 7] was 5061.49 pg/mL and 4756.68 pg/mL. The TNFα [1, 7] was 105.84 pg/mL and 102.44 pg/mL, the sE-selectin [1, 7] was 259.01 pg/mL and 287.88 pg/mL and the sP-Selectin [1, 7] was 1239.34 pg/mL and 1299.54 pg/mL.

With “Glycosylated BTN2A1 tet. (simple glycans) (from UniProt Q7KYR7) (ligand)” the cells in the BTN2A1 tetramer+ gate (%) [2] was 100%.

“BTN2A1 tetramer-PE (biotinylated BTN2A1 ectodomain tetramerized with streptavidin-PE) (ligand)” gave a cells in the BTN2A1 tetramer+ gate (%) [2] of 100%.

B1: clone 267: anti-BTN2A1 mAb, partial inhibitor; VH SEQ ID NO: 132, VL SEQ ID NO: 133 (antibody, V domains shown)
VH: EVQLLESGGGLVQPGGSLRLSCAASGFTFSTYVMYWVRQAPGKGLEWVSSISPSGGLTVYVDSVKGRFTISRDNSKNTLYLQMNSLRAEDTAVYYCARVGYSSSDIWGQGTMVTVSS
VL: QYELTQPHSVSESPGKTVTISCTRNGGSIASNAVQWYQQRPGSAPITVIYDDSQRPSGVPDRFSGSIDSSSNTASLTISGLTTEDEADYYCLSFDTTSQIFGGGTKLTVL
modifications: amino acid sequence of clone 267 VH; amino acid sequence of clone 267 VL
B1 was tested, and the “HMBPP-induced activation (CD25 upregulation, IFN-γ production)” value (shortened to “HMBPP-induced activation”) [3] was “only a partial inhibitor”.

B2: antibody 244: agonistic anti-BTN2A1 antibody; VL SEQ ID NO: 140, VH SEQ ID NO: 144 (antibody, V domains shown)
VH: EVQLLESGGGLVQPGGSLRLSCAASGFTFSEYSMSWVRQAPGKGLEWVSRIGPSGGGTVYADSVKGRFTISRDNSKNTLYLQMNSLRAEDTAMYYCARLGRGAVAELDYWGQGTLVTVSS
VL: QSVLTQPHSVSESPGKTVTISCTRSSGRIGSNYVHWYQHLPGRAPKLLIYGNSNRPSGVPDRFSGSKSGTSASLAITGLQADDEADYYCQTYDNNVWVFGGGTKLTVL
modifications: amino acid sequence of the VH of antibody 244; amino acid sequence of the VL of antibody 244
B2 was tested, and the “level of secreted interferon γ” value [4] was “increase the level of secreted interferon γ” and the “percentage of γδ T cells expressing CD25” value [4] was “increase the percentage of γδ T cells expressing CD25”.

B3: antibody 253: agonistic anti-BTN2A1 antibody; VL SEQ ID NO: 148, VH SEQ ID NO: 152 (antibody, V domains shown)
VH: EVQLLESGGGLVQPGGSLRLSCAASGFTFSTYDMYWVRQAPGKGLEWVSYISPSGGLTTYADSVKGRFTISRDNSKNTLYLQMNSLRAEDTAVYYCARDHYDSSGRATNYYYYMDVWGKGTTVTVSS
VL: QSALTQPPSASGTPGQRVTLSCSGSSSNIGSNRVNWYQQLPGTAPKLLIDSNNQRPSGVPDRFSGSKSGTSASLAISGLRSEDEVFYYCAAWDDSVHGPVFGGGTMVTVL
modifications: amino acid sequence of the VH of antibody 253; amino acid sequence of the VL of antibody 253
B3 was tested, and the “CD25 level of expression on γδ T cells in co-culture” value [5] was “upregulated”, the “activation of Vγ9Vδ2 cells by CD25 upregulation” value [6] was “activation of Vγ9Vδ2 independent of phosphoantigen; also recorded: can mimic phosphoantigen mediated activation to various degrees” and the “level of secreted interferon γ” value [4] was “increase the level of secreted interferon γ”. The “percentage of γδ T cells expressing CD25” value [4] was “increase the percentage of γδ T cells expressing CD25”, the “cytokine/chemokine secretion, in words” value ([1]; across both donors) was “weaker stimulus” and the “cytokine/chemokine secretion, in words” value ([1]; cancer patient derived Vγ9Vδ2 cells, vs isotype (BM4)) was “No increase in any analyte”. For the same molecule, the “cytokine/chemokine secretion, in words” value ([1]; healthy donor derived Vγ9Vδ2 cells, vs isotype (BM4)) was “only small increases in the amounts of secreted GMCSF”, the ICAM-1 ([1]; γδT cells from a healthy donor) was 0.1 pg/mL and the IFNγ ([1]; γδT cells from a healthy donor) was 0.1 pg/mL. The IL-4 ([1]; γδT cells from a healthy donor) was 0.1 pg/mL, the IL-8 ([1]; γδT cells from a healthy donor) was 0.1 pg/mL and the IL-13 ([1]; γδT cells from a healthy donor) was 0.1 pg/mL. It also gave an IL-17A ([1]; γδT cells from a healthy donor) of 0.1 pg/mL, a TNFα ([1]; γδT cells from a healthy donor) of 0.1 pg/mL and a sE-selectin ([1]; γδT cells from a healthy donor) of 0.1 pg/mL. For the same molecule, the sP-Selectin ([1]; γδT cells from a healthy donor) was 0.1 pg/mL, the MIP-1a [1, 8] was 16.32 pg/mL and 19.57 pg/mL and the MIP-1b [1, 8] was 117.31 pg/mL and 143.67 pg/mL. The IL-4 [1, 7] was 0.1 pg/mL, the IL-8 [1, 7] was 0.1 pg/mL and the IL-17A [1, 7] was 0.1 pg/mL. The TNFα [1, 7] was 0.1 pg/mL, the sP-Selectin [1, 7] was 0.1 pg/mL and the GMCSF [1, 9] was 32.02 pg/mL and 33.23 pg/mL. The ICAM-1 [1, 9] was 480.81 pg/mL and 405.75 pg/mL, the IFNγ [1, 9] was 6.87 pg/mL and 3.45 pg/mL and the IL-13 [1, 9] was 45.16 pg/mL and 36.92 pg/mL. The MIP-1a [1, 9] was 133.36 pg/mL and 137.25 pg/mL, the MIP-1b [1, 9] was 901.33 pg/mL and 941.65 pg/mL and the sE-selectin [1, 9] was 142.97 pg/mL and 101.78 pg/mL.

B4: clone 236: neutralizing anti-BTN2A1 mAb; VH SEQ ID NO: 116, VL SEQ ID NO: 117 (antibody, V domains shown)
VH: EVQLLESGGGLVQPGGSLRLSCAASGFTFSHYSMSWVRQAPGKGLEWVSGISSSGGFTPYADSVKGRFTISRDNSKNTLYLQMNSLRAEDTAVYYCTGGSGFDIWGQGTMVTVSS
VL: DIQMTQSPSTLSVSVGDRVTITCRASQTISSWLAWFQQKPGQAPKLLIYRASTLETGVPSRFSGSESGTTFTLTINGLQPDDLATYYCQQYATFPWTFGQGTKVEVK
modifications: amino acid sequence of clone 236 VH; amino acid sequence of clone 236 VL
With B4 the “HMBPP-induced activation” value [3] was “failed to upregulate CD25 and produce IFN-γ”.

B5: clone 266: neutralizing anti-BTN2A1 mAb; VH SEQ ID NO: 124, VL SEQ ID NO: 125 (antibody, V domains shown)
VH: EVQLLESGGGLVQPGGSLRLSCAASGFTFSMYTMMWVRQAPGKGLEWVSGIGSSGGHTKYADSVKGRFTISRDNSKNTLYLQMNSLRAEDTAVYYCARYGHTFETWGQGTMVTVSS
VL: QYELTQPPSASGTPGQRVTISCSGSSSNIGSNYVYWYQQLPGTAPKLLIYRNNQRPSGVPDRFSGSKSGTSASLAISGLRSEDEADYYCAAWDDSLSGSYVFGTGTKVTVL
modifications: amino acid sequence of clone 266 VH; amino acid sequence of clone 266 VL
For B5, the “HMBPP-induced activation” value [3] was “failed to upregulate CD25 and produce IFN-γ”.
